Measured values reported in patent US20260078196A1 (TJ BIOPHARMA SHANGHAI, published 2026).
Where a chain is given by its changes, count along the chain named. Where two headings read alike, the source gives them in different places. Blank lines part the entries; values can stand above or below the binder they belong to.

How the values were obtained:
human MUC16 on cells [1] = biological target: T1, human MUC16 on cells (human, UniProt Q8WXI7 1-14507); assay: flow cytometry (GMFI) on OVCAR3 cells; same value as in FIG. 11A, nM is the unit of the x axis
T1 construct: whole, on cells; also called huMUC16; MUC16 on OVCAR3 and SNU216 cells

huMUC16, AA13789-14451 = biological target: T2, huMUC16, AA13789-14451; assay: binding ELISA on huMUC16 AA13789-14451
T2 construct: also called MUC16 Antigen (human MUC16 AA13789-14451)
T2 chain: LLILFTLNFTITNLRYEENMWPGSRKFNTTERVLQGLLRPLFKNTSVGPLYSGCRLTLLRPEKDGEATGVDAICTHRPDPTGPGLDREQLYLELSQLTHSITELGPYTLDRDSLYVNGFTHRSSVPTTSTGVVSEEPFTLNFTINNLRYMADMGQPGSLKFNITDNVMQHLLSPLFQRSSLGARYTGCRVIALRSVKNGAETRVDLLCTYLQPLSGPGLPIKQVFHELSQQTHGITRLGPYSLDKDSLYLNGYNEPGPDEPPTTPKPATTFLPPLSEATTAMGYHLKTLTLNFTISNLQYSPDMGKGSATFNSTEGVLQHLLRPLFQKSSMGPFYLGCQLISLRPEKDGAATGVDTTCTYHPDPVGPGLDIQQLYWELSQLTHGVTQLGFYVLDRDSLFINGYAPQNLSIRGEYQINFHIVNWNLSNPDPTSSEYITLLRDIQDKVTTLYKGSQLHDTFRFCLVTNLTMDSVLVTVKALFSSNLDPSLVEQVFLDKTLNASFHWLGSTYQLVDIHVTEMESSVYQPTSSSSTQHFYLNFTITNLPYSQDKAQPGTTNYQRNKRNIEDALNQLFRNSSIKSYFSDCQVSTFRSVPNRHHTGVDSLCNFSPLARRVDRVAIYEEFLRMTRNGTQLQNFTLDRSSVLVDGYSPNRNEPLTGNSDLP

human MUC16 on cells [2] = biological target: T1, human MUC16 on cells; assay: flow cytometry (GMFI) on OVCAR3 cells, nM is the unit of the x axis Log10[Ab] (nM)
ROR1 antigen [3] = biological target: T3, ROR1 antigen (UniProt Q01973 30-406, limits assumed); assay: SPR on ROR1
T3 construct: Soluble antigen of the Octet binning and of the SPR assay

ROR1 antigen [4] = biological target: T3, ROR1 antigen; assay: SPR, binding to ROR1
ROR1 on cells [5] = biological target: T4, ROR1 on cells (UniProt Q01973 30-937); assay: flow cytometry (gMFI) on MDA-MB-231 cells
T4 construct: whole, on cells; also called ROR1 endogenous expressed tumor cell A549; ROR1-positive tumor cell lines

ROR1 on cells [6] = biological target: T4, ROR1 on cells; assay: flow cytometry (gMFI) on A549 cells
ROR1 on cells [7] = biological target: T4, ROR1 on cells; assay: flow cytometry (gMFI) on A549 cells; remark: listed apart in the source
ROR1 on cells [8] = biological target: T4, ROR1 on cells; assay: flow cytometry (gMFI) on A549 cells; remark: listed apart in the source
ROR1 antigen [9] = biological target: T3, ROR1 antigen; assay: SPR on ROR1; remark: listed apart in the source
ROR1 antigen [10] = biological target: T3, ROR1 antigen; assay: SPR on ROR1; remark: listed apart in the source

B2: 4B-8F2 (humanized) or 4B-h8F2 (bispecific antibody, human IgG1, kappa)
heavy: not shown
light: DIVMTQTPLSLSVTPGQPASISCKSSQSLLHSNGKTYLNWYLQKPGQSPQLLIYLVSKLESGVPDRFSGSGSGTDFTLKISRVEAEDVGVYYCLQATYFPYTFGQGTKLEIKRTVAAPSVFIFPPSDEQLKSGTASVVCLLNNFYPREAKVQWKVDNALQSGNSQESVTEQDSKDSTYSLSSTLTLSKADYEKHKVYACEVTHQGLSSPVTKSFNRGEC
notes: Humanized ROR1 x 4-1BB BsAb
koff (ROR1 antigen [3]): 0.0592 s⁻¹
kon (ROR1 antigen [3]): 250000 M⁻¹ s⁻¹
Kd (ROR1 antigen [4]): 237 nM
EC50 (read off the curve) (ROR1 on cells [5]): ~0.01 nM
EC50 (read off the curve) (ROR1 on cells [6]): ~0.03 nM

B6: 3C5 (antibody, V domains shown)
VH: EVKLVESGGGLVKPGGSLKLSCAASGFTFSSYAMSWVRQTPEKRLEWVSSISSGGTTYYPDTVKGRFTISRDNARNILYLQMSSLRSEDTAMYYCARDSLYYGSSLYYAMDYWGQGTSVTVSS
VL: DIKMTQSPSSMYASLGERVSITCRASQDIYSYLSWFQQKPGKSPKTLIYRANRLVDGVPSRFSGSGSGQDYSLTISSLEYEDMGIYYCLQYDEFPYTFGGGTKLEIK
notes: Anti-ROR1 mAb (chimeric section 9.1); also called anti-ROR1 mAb 3C5
EC50 (read off the curve) (ROR1 on cells [7]): ~0.04 nM

B8: 4B-3C5 (humanized) or 4B-h3C5 (bispecific antibody, human IgG1, kappa)
heavy: not shown
light: DIQMTQSPSSLSASVGDRVTITCRASQDIYSYLSWFQQKPGKAPKTLIYRANRLVDAVPSRFSGSGSGQDYTLTISSLQPEDFATYYCLQYDEFPYTFGQGTKLEIKRTVAAPSVFIFPPSDEQLKSGTASVVCLLNNFYPREAKVQWKVDNALQSGNSQESVTEQDSKDSTYSLSSTLTLSKADYEKHKVYACEVTHQGLSSPVTKSFNRGEC
notes: Humanized ROR1 x 4-1BB BsAb; also called humanized 3C5 IgG x 4-1BB VHH
Kd (ROR1 antigen [4]): 79.3 nM
EC50 (read off the curve) (ROR1 on cells [5]): ~0.03 nM
koff (ROR1 antigen [10]): 0.00821 s⁻¹
kon (ROR1 antigen [10]): 104000 M⁻¹ s⁻¹
EC50 (read off the curve) (ROR1 on cells [6]): ~0.03 nM

Second part, the binder after the results:

EC50 (human MUC16 on cells [1]): 0.192 nM
binding result (huMUC16, AA13789-14451): binds
EC50 (human MUC16 on cells [2]): 0.192 nM
B1: M16-1 (antibody, human IgG1, kappa, N297A, V domains shown)
VH: QVQLVESGGGLVKPGGSLRLSCAASGFTFSNYYMSWVRQAPGKGLEWISYISGRGSTIFYADSVKGRITISRDNAKNSLFLQMNSLRAEDTAVYFCVKDRGGYSPYWGQGTLVTVSS
VL: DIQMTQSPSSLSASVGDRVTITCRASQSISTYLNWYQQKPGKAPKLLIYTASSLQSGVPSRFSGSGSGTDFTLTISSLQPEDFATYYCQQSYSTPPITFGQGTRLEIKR
notes: also called benchmarker antibody M16-1

EC50 (read off the curve) (ROR1 on cells [7]): ~0.04 nM
B3: humanized 3C5 anti-ROR1 mAb (antibody, V domains shown)
VH: EVQLVESGGGLVKPGGSLRLSCAASGFTFSSYAMSWVRQAPGKRLEWVSSISSGGTTYYPDTVKGRFTISRDNAKNSLYLQMNSLRAEDTAVYYCARDALYYGSSLYYAMDYWGQGTLVTVSS
VL: DIQMTQSPSSLSASVGDRVTITCRASQDIYSYLSWFQQKPGKAPKTLIYRANRLVDAVPSRFSGSGSGQDYTLTISSLQPEDFATYYCLQYDEFPYTFGQGTKLEIK
notes: also called h3C5; h3C5-PTM

EC50 (read off the curve) (ROR1 on cells [8]): ~0.02 nM
B4: 8F2 (antibody, V domains shown)
VH: EVQLQQSGPELVKPGASVKMSCKASGYTFTTYVMHWVKQKPGQGLEWIGYINPYNGGIRYNEKFKGKATLTSDKSSSTAYMELSSLTSEDSAVYYCARRERGVYYGMDEWGQGTSVTVSS
VL: DVVMTQTPLTLSVTIGQPASISCKSSQSLLHSNGKTYLNWLLQRPGQSPNLLIYLVSKLESGVPDRFSGSGSGTDFTLKISRVEAEDLGVYYCLQATYFPYTFGSGTKLEIK
notes: Anti-ROR1 mAb (chimeric section 9.1); also called anti-ROR1 mAb 8F2

binding result (ROR1 on cells [8]): binds
B5: humanized 8F2 anti-ROR1 mAb (antibody, V domains shown)
VH: QVQLVQSGAEVKKPGASVKVSCKASGYTFTTYVMHWVRQAPGQGLEWMGYINPYNGGIRYNEKFKGRVTMTRDTSTSTVYMELSSLRSEDTAVYYCARRERGVYYGMDEWGQGTLVTVSS
VL: B4 VL with V2I, T10S, I15P, L41Y, R44K, N50Q, L88V, S105Q
notes: also called h8F2

koff (ROR1 antigen [9]): 0.00114 s⁻¹
kon (ROR1 antigen [9]): 93600 M⁻¹ s⁻¹
Kd (ROR1 antigen [4]): 12.1 nM
EC50 (read off the curve) (ROR1 on cells [5]): ~0.06 nM
EC50 (read off the curve) (ROR1 on cells [6]): ~0.1 nM
B7: 4B-BiR1(Humanized) or 4B-hBiR1 (bispecific antibody, human IgG1, kappa)
heavy: not shown
chain: DIVMTQTPLSLSVTPGQPASISCKSSQSLLHSNGKTYLNWYLQKPGQSPQLLIYLVSKLESGVPDRFSGSGSGTDFTLKISRVEAEDVGVYYCLQATYFPYTFGQGTKLEIKGGGGSGGGGSGGGGSQVQLVQSGAEVKKPGASVKVSCKASGYTFTTYVMHWVRQAPGQGLEWMGYINPYNGGIRYNEKFKGRVTMTRDTSTSTVYMELSSLRSEDTAVYYCARRERGVYYGMDEWGQGTLVTVSSAAEPKSSDKTHTCPPCPAPELLGGPSVFLFPPKPKDTLMISRTPEVTCVVVDVSHEDPEVKFNWYVDGVEVHNAKTKPREEQYNSTYRVVSVLTVLHQDWLNGKEYKCKVSNKALPAPIEKTISKAKGQPREPQVCTLPPSREEMTKNQVSLSCAVKGFYPSDIAVEWESNGQPENNYKTTPPVLDSDGSFFLVSKLTVDKSRWQQGNVFSCSVMHEALHNHYTQKSLSLSPGKGGGGSGGGGSGGGGSQVQLQESGGGLVQPGGSLRLSCAASGYTYSSNCMGWFRQAPGKGLEGVAVICTGGGSPSYADSVKGRFTISRDNAKNTLYLQMNSLRAEDTAVYYCAADLLRAGTPLSSYEFNYWGQGTLVTVSS
light: B8 light
notes: Humanized bi-paratopic ROR1 x 4-1BB antibody: h3C5 IgG half with VHH plus h8F2 scFv-Fc-VHH; also called 4-hiBiR1
